Assay results taken from patent US5906819, “Rho target protein Rho-kinase” (Kirin Beer Kabushiki Kaisha, dated 1999).

What was measured:
GTPγS·GST-Rac1 = GTPγS·GST-Rac1 (Homo sapiens (Human), UniProt P63000); test: GST-small G-protein glutathione-Sepharose affinity column
GTPγS·GST-H-Ras = GTPγS·GST-H-Ras (Homo sapiens (Human), UniProt P01112); test: as above
GST = GST (Schistosoma japonicum (Blood fluke), UniProt P08515 = GST); test: GST-small G-protein glutathione-Sepharose affinity column, SDS-PAGE and silver staining
Procedure: The GST-small G-proteins (24 nmol each) were immobilized on 1 ml glutathione-Sepharose column 4B and loaded on the column.
The proteins of the bovine brain membrane extract were eluted through a 1 ml glutathione-Sepharose column. The pass-through fraction was loaded onto a glutathione-Sepharose column containing 24 nmol of GST, GDP•GST-RhoA or GTPγS•GST-RhoA. […] The proteins bound to the glutathione-Sepharose column were eluted by addition of 10 ml Buffer A containing glutathione or 1% 3-[(3-cholamidopropyl) dimethylammonio] propanesulfonic acid (CHAPS), and fractions of 1 ml each were collected.

B1: bovine Rho-kinase (enzyme)
chain: MSRPPPTGKMPGAPEAVSGDGAGASRQRKLEALIRDPRSPINVESLLDGLNPLVLDLDFPALRKNKNIDNFLNRYEKIVKKIRGLQMKAEDYDVVKVIGRGAFGEVQLVRHKASQKVYAMKLLSKFEMIKRSDSAFFWEERDIMAFANSPWVVQLFCAFQDDKYLYMVMEYMPGGDLVNLMSNYDVPEKWAKFYTAEVVLALDAIHSMGLIHRDVKPDNMLLDKHGHLKLADFGTCMKMDETGMVHCDTAVGTPDYISPEVLKSQGGDGYYGRECDWWSVGVFLFEMLVGDTPFYADSLVGTYSKIMDHKNSLCFPEDAEISKHAKNLICAFLTDREVRLGRNGVEEIKQHPFFKNDQWNWDNIRETAAPVVPELSSDIDSSNFDDIEDDKGDVETFPIPKAFVGNQLPFIGFTYYRENLLLSDSPSCKENDSIQSRKNEESQEIQKKLYTLEEHLSTEIQAKEELEQKCKSVNTRLEKVAKELEEEITLRKNVESTLRQLEREKALLQHKNAEYQRKADHEADKKRNLENDVNSLKDQLEDLKKRNQNSQISTEKVNQLQRQLDETNALLRTESDTAARLRKTQAESSKQIQQLESNNRDLQDKNCLLETAKLKLEKEFINLQSVLESERRDRTHGSEIINDLQGRISGLEEDVKNGKILLAKVELEKRQLQERFTDLEKEKNNMEIDMTYQLKVIQQSLEQEETEHKATKARLADKNKIYESIEEAKSEAMKEMEKKLSEERTLKQKVENLLLEAEKRCSILDCDLKQSQQKINELLKQKDVLNEDVRNLTLKIEQETQKRCLTQNDLKMQTQQVNTLKMSEKQLKQENNHLLEMKMSLEKQNAELRKERQDADGQMKELQDQLEAEQYFSTLYKTQVRELKEECEEKTKLCKELQQKKQELQDERDSLAAQLEITLTKADSEQLARSIAEEQYSDLEKEKIMKELEIKEMMARHKQELTEKDATIASLEETNRTLTSDVANLANEKEELNNKLKEAQEQLSRLKDEEISAAAIKAQFEKQLLTERTLKTQAVNKLAEIMNRKEPVKRGNDTDVRRKEKENRKLHMELKSEREKLTQQMIKYQKELNEMQAQIAEESQIRIELQMTLDSKDSDIEQLRSQLQALHIGLDSSSIGSGPGDTEADDGFPESRLEGWLSLPVRNNTKKFGWVKKYVIVSSKKILFYDSEQDKEQSNPYMVLDIDKLFHVRPVTQTDVYRADAKEIPRIFQILYANEGESKKEQEFPVEPVGEKSNYICHKGHEFIPTLYHFPTNCEACMKPLWHMFKPPPALECRRCHIKCHKDHMDKKEEIIAPCKVYYDISSAKNLLLLANSTEEQQKWVSRLVKKIPKKPPAPDPFARSSPRTSMKIQQNQSIRRPSRQLAPNKPS
- binding result (GTPγS·GST-Rac1): no binding
- binding result (GTPγS·GST-H-Ras): no binding
- binding result (GST): no binding (tested: 24 nmol on the column)
